According to patent US8227408B2, “Leptin as an anti-amyloidogenic biologic and methods for delaying the onset and reducing Alzheimer's disease-like pathology” (Neurotez, Inc., priority 2005, dated 2012):

Experiments:
[1] = test system: primary embryonic rat neurons infected with adenovirus; test: Aβ production by primary embryonic rat neurons infected with adenovirus (SEAP-APP); format: cell-based; settings: total Aβ in conditioned media, 5 h; concentration (TOFA 200 μM, cerulenin 200 μM, etomoxir 40 μM, peptide YY (3-36) 25 μM, CNTF 25 μM, leptin 400 ng/ml); mean ± SEM; NS = non-significant
Text: Cell cultures, Treatments, Antibodies and Immunoassays. SY5Y cells (human neuroblastoma) were maintained in culture as described (Johnsingh et al., FEBS Lett. 465:53-8 (2000)). Primary neural cultures were obtained from ε16 rat embryonic cortex, as described (Shimoda et al., 1992. Brain Res. 586:319-31 (1992)). These were either grown as mixed cultures (Johnsingh et al., FEBS Lett. 465:53-8 (2000)) or grown under conditions that favor the isolation and proliferation of astrocytes (Takeshima et al., J Neurosci. 14:4769-79 (1994)).
Neuro2a (mouse neuroblastoma) stably transfected with hyg-sa134, a pcDNA3.1/Hygro plasmid (Invitrogen, CA) modified to express a fusion protein of secreted alkaline phosphatase (SEAP) and a fragment of APP consisting of the C-terminal 134 amino acids (“CAPP134”) (SEQ ID NO:10) were maintained in culture as described ([…]) in the presence of 400 μg/ml of hygromycin. SEQ ID NO: 11 is the DNA sequence of the entire hygsa134 vector, which was derived from the pcDNA3.1/Hygro vector by genetic manipulation to insert the DNA sequences for SEAP and CAPP134. The SEAP-CAPP cDNA insert from hyg-sa134 was also subcloned into an adenoviral vector using the Adeno Vator system (Qbiogene, Calif.). The DNA sequence for SEAP (corresponding to nucleotides 981-2441 of hyg-sa134) (SEQ ID NO: 9) is located 5′ to the DNA sequence (SEQ ID NO: 12) coding for CAPP134 (SEQ ID NO: 10).
SY5Y and hyg-sa134-Neuro2a cells were treated at 80% confluency (see below). Primary neural cultures from mouse embryos were allowed to grow for 6-12 days following plating and prior to viral infection and treatments.
Human (SYSY) or mouse neuroblastoma cell-lines (Neuro2a) commonly are used to study amyloid β metabolism in vitro. Neuro2a cells are stably transfected with hyg-sa134 (SEQ ID NO: 11), a plasmid driving the expression of a recombinant fusion protein containing the human C-terminal fragment of APP of about 134 amino acids, CAPP134 (SEQ ID NO: 10). Here, 5Y5Y or Neuro2a cultures were treated for 2 or 5 h with about 100 ng/ml or about 400 ng/ml leptin (FIG. 4a, 4b). Similarly, primary neurons from embryonic rat brain, infected with an adenovirus to direct the expression of CAPP134 (SEQ ID NO:10) also were treated according to the same regimen.

BACE = BACE activity, APP and flotillin in sucrose gradient fractions of treated SY5Y cells (fluorescence quenching assay); format: cell-based, human
Protocol: In panel (a), Neuro2a cells stably transfected with hyg-sa134 were treated for about 2 h or about 5 h with about 100 ng/ml leptin, Ob (black); about 125 mg/ml cyclodextrin, CDX (striped gray); about 5 mg/ml cholesterol, Ch (pale gray); and leptin plus cholesterol, Ob+Ch (medium gray). Media were collected and assayed for total Aβ by ELISAs (Figueiredo-Pereira et al., J Neurochem. 72:1417-22 (1999)). […] Water soluble cholesterol (Sigma-Aldrich, Mo.) is a solution made of cholesterol balanced with CDX (40 mg cholesterol per gr CDX). […] Extracts prepared from harvested cells were analysed by SDS-PAGE and Western blotting using an antibody directed against the C-terminal fraction of APP (C-APP, lanes 1-4) or actin (top lanes 5-8) or full-length APP (bottom lanes 5-8). […] Fractions collected from the bottom of the gradient were analysed by SDS-PAGE and Western blotting for the detection of APP and flotillin (marker for lipid rafts). […] In panel (e), fractions collected as above were assayed for β-secretase activity using a fluorescence-quenching assay (QTL Biosystems, NM). The results are expressed as the percent distribution of BACE activity within the gradient derived from cell cultures in the absence (black) or presence (gray) of leptin in the medium. […]

B1: Leptin: peptide hormone controlling adaptive metabolic mechanisms to energy availability; leptin (Harbor-UCLA) in vitro, recombinant murine leptin in mice (protein, UniProt P41160 22-167, looked up)
Leptin: VPIQKVQDDTKTLIKTIVTRINDISHTQSVSAKQRVTGLDFIPGLHPILSLSKMDQTLAVYQQVLTSLPSQNVLQIANDLENLRDLLHLLAFSKSCSLPQTSGLQKPESLDGVLEASLYSTEVVALSRLQGSLQDILQQLDVSPEC
Neurons/SEAPP-APP Aβ (% control) [1]: 35 ± 4 % control | activity of BACE in the low density fractions (BACE; about 400 ng/ml leptin, about 5 h, sucrose gradient fractions): almost absent | flotillin migration / elution position on sucrose gradient (BACE; compared to controls): migrated at heavier subcellular fractions
